Reference: patent publication US20020165186, “Compounds that affect CD83 expression, pharmaceutical compositions comprising said compounds and methods for identifying said compounds” (published 2002)

Key:
HuR (ELAV, ELAVL1) [1] = molecular target: T1, HuR (ELAV, ELAVL1) (Homo sapiens, UniProt Q15717 SEQ:1-326); assay: SPR; GST-HuR captured on CM5 chip; HBS-EP buffer; conditions: tags: N-terminal GST (pGEX-5X-1), E. coli BL21; 3-pronged stem-loop (predicted)
Excerpt: Specific protein-RNA interactions were detected by Surface Plasmon Resonance using the BIACore X optical biosensor (Pharmacia Biosensor AB, Upsala, Sweden).
The GST-fusion proteins of interest (GST alone or GST-ELAV (HuR)) were immobilized onto the surface of a CM5 Chip (Pharmacia Biosensor AB, Upsala, Sweden) by using the BIACore GST Capture Kit (Pharmacia Biosensor AB, Upsala, Sweden), according to the manufacturers instructions, until a change of at least 1,000 resonance units (RU) was detectable.
1 μg of in vitro transcribed RNA (using the T7/SP6 Riboprobe Kit, Promega, Mannheim, Germany) was diluted in a total volume of 80 μl HBS-EP buffer (10 mM HEPES, 150 mM NaCl, 3 mM EDTA, 0.005% (v/v) polysorbate 20) and was allowed to flow over the chip at a flow rate of 50μl/minute. The standard running buffer was HBS-EP buffer. The sensor surface was regenerated between assays by injecting 30 μl of 0.5 M NaCl to remove bound analyte.

HuR (ELAV, ELAVL1) [2] = molecular target: T1, HuR (ELAV, ELAVL1); assay: EMSA; conditions: tags: N-terminal GST (pGEX-5X-1), E. coli BL21, label: 32P-UTP

T1 sequence (Q15717 whole entry T180A): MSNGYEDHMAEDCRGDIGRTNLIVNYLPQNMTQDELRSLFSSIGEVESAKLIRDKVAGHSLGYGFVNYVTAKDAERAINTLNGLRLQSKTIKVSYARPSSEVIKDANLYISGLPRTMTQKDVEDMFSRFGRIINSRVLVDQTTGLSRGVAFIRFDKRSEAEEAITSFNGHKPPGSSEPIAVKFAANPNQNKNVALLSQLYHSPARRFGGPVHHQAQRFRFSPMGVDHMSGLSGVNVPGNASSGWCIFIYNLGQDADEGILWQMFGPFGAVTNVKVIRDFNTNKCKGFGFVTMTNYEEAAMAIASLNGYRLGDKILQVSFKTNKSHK

B1: CD83 RNA nt466-615 (stem-loop-2) (ssRNA)
RNA: UUAACACUCAUCAUUUUCACUUGUAAGUUUGCACGGCUACAGAGUAUCUUCCCAGAUUUUUCUAAAGCUGGCAUGGAACGAGCUUUUCUCCCAGUUACCUCCCCAAAUAAGCAUUUAGGGCUAGUGACUCCUCACAAGACAGAACUGGUA
binding result (HuR (ELAV, ELAVL1) [1]): binds

B2: CD83 RNA nt295-465 (stem-loop-1) (ssRNA)
RNA: AGCUGCAACUCGGGGACAUACAGGUGCACUCUGCAGGACCCGGAUGGGCAGAGAAACCUAAGUGGCAAGGUGAUCUUGAGAGUGACAGGAUGCCCUGCACAGCGUAAAGAAGAGACUUUUAAGAAAUACAGAGCGGAGAUUGUCCUGCUGCUGGCUCUGGUUAUUUUCUAC
binding result (HuR (ELAV, ELAVL1) [2]; single stem-loop (nt412-465, predicted)): binds

B3: CD83 RNA nt466-618 (stem-loop-2) (ssRNA)
RNA: UUAACACUCAUCAUUUUCACUUGUAAGUUUGCACGGCUACAGAGUAUCUUCCCAGAUUUUUCUAAAGCUGGCAUGGAACGAGCUUUUCUCCCAGUUACCUCCCCAAAUAAGCAUUUAGGGCUAGUGACUCCUCACAAGACAGAACUGGUAUGA
binding result (HuR (ELAV, ELAVL1) [2]; 3-pronged stem-loop (predicted)): binds
